From the supplement of paper PMC12783771
± gives the standard deviation of the averaged measurements.

B1: library; numbered along this chain (parent)
chain: MNIQIGELAKRTACPVVTIRFYEQEGLLPPPGRSRGNFRLYGEEHVERLQFIRHCRSLDMPLSDVRTLLSYRKRPDQDCGEVNMLLDEHIRQVESRIGALLELKHHLVELREACSGARPAQSCGILQGLSDCVCDTRGTTAHPSD

Legend:
[1] = variants of: B1; test: sfGFP reporter fluorescence (15 h) (µM FITC); higher = higher leak; conditions: library round: Round 0; ligand: none
Outline: (§1)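 Values are endpoint sfGFP fluorescence given as µM FITC equivalents. Fluorescence was read at 485/528 nm on a Synergy Neo2, and FITC standard curves were prepared in 50 mM sodium borate pH 8.5. Reactions of 1 μL combined BL21 Star (DE3) PANOx-SP extract, pPbrR-sfGFP reporter, 30 μg/mL GamS and linear PbrR templates (PCR-made, Echo-normalized to 5 nM), with 1 µM lead chloride, 30 µM zinc acetate or no metal, for 15 hr at 30 °C.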

[2] = variants of: B1; test: sfGFP reporter fluorescence (15 h) (µM FITC); higher = stronger transcriptional activation; conditions: library round: Round 0
Outline: as §1

| Variant | sfGFP reporter fluorescence [1] | sfGFP reporter fluorescence ([2]; ligand: 1 µM Pb) | sfGFP reporter fluorescence ([2]; ligand: 30 µM Zn) |
| --- | --- | --- | --- |
| K104V L107C G128I | 0.483 ± 0.024 | 2.5 ± 0.27 | 3.37 ± 0.23 |
| H89G | 0.0559 ± 0.0044 | 0.05443 ± 0.00026 | 0.0577 ± 0.0023 |
| C14A | 0.0687 ± 0.0018 | 0.0726 ± 0.0015 | 0.317 ± 0.01 |
| M60L G128M | 0.939 ± 0.012 | 2.69 ± 0.78 | 4.69 ± 0.071 |
| L28E | 0.06304 ± 0.00052 | 0.0649 ± 0.0015 | 0.0656 |
| L58A | 0.0601 ± 0.001 | 0.05681 ± 0.00052 | 0.0563 ± 0.0049 |
| D135M | 0.0636 ± 0.0018 | 0.09639 ± 0.00052 | 2.2 ± 0.33 |
| D135Y | 0.0676 ± 0.0039 | 0.116 ± 0.0073 | 1.46 ± 0.17 |
| V108I | 0.0566 ± 0.0013 | 0.0667 ± 0.0026 | 0.508 ± 0.011 |
| V108L | 0.0594 ± 0.001 | 0.0696 ± 0.0026 | 0.616 ± 0.035 |
| C134S | 0.06597 ± 0.00052 | 0.0814 ± 0.0036 | 1.22 ± 0.1 |
| L68R | 0.06175 ± 0.00026 | 0.0579 ± 0.001 | 0.0596 ± 0.0029 |
| L68D | 0.0619 ± 0.001 | 0.061 ± 0.0013 | 0.0636 ± 0.0023 |
| L68P | 0.0632 ± 0.0029 | 0.0583 ± 0.0015 | 0.0652 ± 0.0026 |
| L68W | 0.0627 ± 0.0026 | 0.06157 ± 0.00052 | 0.111 ± 0.0018 |
| L68T | 0.0612 ± 0.0015 | 0.0605 ± 0.001 | 0.0717 ± 0.0013 |
| L107C G128I | 1.34 ± 0.036 | 3.12 ± 0.11 | 4.14 ± 0.064 |
| L126D | 0.0597 ± 0.0021 | 0.0581 ± 0.00078 | 0.0544 ± 0.0029 |
| L126Y | 0.0596 ± 0.0018 | 0.05937 ± 0.00052 | 0.0561 ± 0.0021 |
| P15K | 0.0634 | 0.0958 ± 0.01 | 1.34 ± 0.047 |
| P15G | 0.0643 ± 0.0018 | 0.085 ± 0.0047 | 0.447 ± 0.028 |
| I90R | 0.0658 ± 0.0049 | 0.125 | 0.97 ± 0.025 |
| V46T | 0.057 ± 0.0013 | 0.07733 ± 0.00052 | 0.419 ± 0.0078 |

| Variant | sfGFP reporter fluorescence [1] | sfGFP reporter fluorescence ([2]; ligand: 1 µM Pb) | sfGFP reporter fluorescence ([2]; ligand: 30 µM Zn) |
| --- | --- | --- | --- |
| L110R | 0.0579 ± 0.0015 | 0.0596 ± 0.00078 | 0.06615 ± 0.00026 |
| M60L P61N D64K G128M | 1.99 ± 0.056 | 3.91 ± 0.25 | 4.405 ± 0.006 |
| C123I | 0.05479 ± 0.00026 | 0.0553 ± 0.001 | 0.0517 ± 0.0021 |
| C123F | 0.0564 ± 0.0015 | 0.0577 ± 0.00078 | 0.0528 ± 0.0015 |
| R20I | 0.0585 ± 0.00078 | 0.06285 ± 0.00026 | 0.142 ± 0.0057 |
| R20T | 0.0625 ± 0.0018 | 0.0612 ± 0.0021 | 0.06102 ± 0.00026 |
| R20M | 0.0607 ± 0.00078 | 0.06066 ± 0.00026 | 0.0605 ± 0.0021 |
| I97C | 0.0601 ± 0.0015 | 0.0702 ± 0.0065 | 0.761 ± 0.036 |
| R39K | 0.0612 ± 0.0015 | 0.0623 ± 0.0036 | 0.14 ± 0.022 |
| R39A | 0.0651 ± 0.0018 | 0.0599 ± 0.0029 | 0.0678 ± 0.0021 |
| K104N | 0.0557 ± 0.0073 | 0.0823 ± 0.025 | 0.879 ± 0.15 |
| E112S | 0.0673 ± 0.00078 | 0.1083 ± 0.00078 | 1.9 ± 0.14 |
| L107R | 0.059 ± 0.001 | 0.055 ± 0.0021 | 0.0781 ± 0.0031 |
| E7W | 0.0608 ± 0.0015 | 0.06359 ± 0.00026 | 0.19 ± 0.0023 |
| E7V | 0.06285 ± 0.00026 | 0.0865 | 0.961 ± 0.14 |
| E7Q | 0.0605 | 0.0891 ± 0.0026 | 1.18 ± 0.057 |
| R35A | 0.0658 ± 0.0029 | 0.08833 ± 0.00052 | 2.06 ± 0.079 |
| T18A | 0.0612 ± 0.001 | 0.0612 ± 0.0026 | 0.188 ± 0.014 |
| R33S | 0.0623 ± 0.00052 | 0.0605 ± 0.0031 | 0.0656 ± 0.001 |
| R33C | 0.0592 ± 0.00078 | 0.0607 ± 0.0023 | 0.0612 ± 0.0021 |
| R33W | 0.0636 ± 0.00078 | 0.0629 ± 0.0039 | 0.0718 ± 0.0021 |
| P30H | 0.0618 ± 0.00078 | 0.0808 ± 0.0023 | 0.659 ± 0.038 |
| D131Y | 0.05919 ± 0.00026 | 0.0815 ± 0.0029 | 0.806 ± 0.01 |

| Variant | sfGFP reporter fluorescence [1] | sfGFP reporter fluorescence ([2]; ligand: 1 µM Pb) | sfGFP reporter fluorescence ([2]; ligand: 30 µM Zn) |
| --- | --- | --- | --- |
| L62A | 0.06469 ± 0.00026 | 0.0634 ± 0.0031 | 0.0839 ± 0.0062 |
| L62Q | 0.0597 ± 0.001 | 0.0608 ± 0.001 | 0.0819 ± 0.0018 |
| L62S | 0.0619 ± 0.0015 | 0.063 ± 0.001 | 0.0744 ± 0.001 |
| L62G | 0.0586 ± 0.001 | 0.0579 ± 0.0015 | 0.0614 ± 0.00078 |
| N83Q | 0.06487 ± 0.00052 | 0.0693 | 1.55 ± 0.4 |
| N83A | 0.061 ± 0.0013 | 0.0867 ± 0.0065 | 0.1411 ± 0.001 |
| N83C | 0.0601 ± 0.0021 | 0.114 ± 0.016 | 0.0649 ± 0.0015 |
| P31A | 0.05736 ± 0.00026 | 0.0607 ± 0.0044 | 0.485 ± 0.04 |
| L129Y | 0.057 ± 0.0018 | 0.05901 ± 0.00052 | 0.05626 ± 0.00026 |
| L129C | 0.0561 ± 0.0015 | 0.05791 ± 0.00052 | 0.05443 ± 0.00026 |
| L129I | 0.0535 ± 0.0021 | 0.0592 ± 0.0013 | 0.163 ± 0.012 |
| R48A | 0.0546 ± 0.0015 | 0.0541 ± 0.0023 | 0.3984 ± 0.0031 |
| M60S | 0.0601 | 0.0608 ± 0.001 | 0.0592 ± 0.00078 |
| K104V G128I | 0.0826 ± 0.006 | 0.287 ± 0.021 | 1.84 ± 0.44 |
| M60L D64K K104V L107C | 3.73 ± 0.15 | 4.15 ± 0.39 | 3.44 ± 0.57 |
| D64K L107C G128M | 6.27 ± 0.28 | 5.91 ± 0.52 | 4.866 ± 0.045 |
| E102A | 0.0735 ± 0.0018 | 0.0771 ± 0.0029 | 0.302 ± 0.057 |
| L85P | 0.057 ± 0.0023 | 0.05809 ± 0.00026 | 0.0555 ± 0.0013 |
| L85I | 0.0577 ± 0.00078 | 0.06853 ± 0.00052 | 0.6194 ± 0.0057 |
| L85K | 0.0585 ± 0.0029 | 0.0566 ± 0.00078 | 0.0645 ± 0.001 |
| M60L P61N L107C | 1.39 ± 0.39 | 2.42 ± 0.21 | 5.07 ± 0.26 |
| M60L L107C | 1.01 ± 0.029 | 1.43 ± 0.057 | 3.93 ± 0.055 |
| C79I | 0.0557 ± 0.0015 | 0.05351 ± 0.00052 | 0.05387 ± 0.00052 |

| Variant | sfGFP reporter fluorescence [1] | sfGFP reporter fluorescence ([2]; ligand: 1 µM Pb) | sfGFP reporter fluorescence ([2]; ligand: 30 µM Zn) |
| --- | --- | --- | --- |
| C79G | 0.0553 ± 0.0021 | 0.0552 ± 0.0013 | 0.0522 ± 0.0013 |
| I125T | 0.0585 ± 0.0023 | 0.0566 ± 0.0013 | 0.06414 ± 0.00052 |
| I125M | 0.05992 ± 0.00026 | 0.0579 ± 0.001 | 0.05571 ± 0.00052 |
| E94G | 0.0553 ± 0.0036 | 0.0656 ± 0.0031 | 0.52721 ± 0.00026 |
| D64V | 0.177 ± 0.0098 | 0.5072 ± 0.0036 | 3.52 ± 0.1 |
| C114I | 0.05717 ± 0.00052 | 0.0942 ± 0.0015 | 0.863 ± 0.012 |
| P61W | 0.061 ± 0.0039 | 0.06395 ± 0.00026 | 0.104 ± 0.0018 |
| P61S | 0.0755 ± 0.00052 | 0.146 ± 0.0036 | 2.15 ± 0.052 |
| G128Q | 0.06982 ± 0.00026 | 0.117 ± 0.0026 | 2.05 ± 0.43 |
| G128F | 0.0671 ± 0.0047 | 0.199 ± 0.023 | 1.2 ± 0.12 |
| G128S | 0.0649 ± 0.0036 | 0.0902 ± 0.0083 | 1.3 ± 0.14 |
| Y22R | 0.0678 ± 0.00052 | 0.06579 ± 0.00026 | 0.0689 ± 0.0031 |
| Y22P | 0.0618 ± 0.0018 | 0.06066 ± 0.00026 | 0.0621 ± 0.0023 |
| Y22T | 0.05937 ± 0.00052 | 0.06084 ± 0.00052 | 0.06121 ± 0.00052 |
| V16F | 0.0623 ± 0.0015 | 0.0641 | 0.107 ± 0.0029 |
| V16Y | 0.0629 ± 0.00078 | 0.0678 ± 0.001 | 0.119 ± 0.0018 |
| V82A | 0.06047 ± 0.00052 | 0.057 ± 0.0013 | 0.0786 ± 0.0039 |
| V82C | 0.05956 ± 0.00026 | 0.0588 ± 0.00078 | 0.0898 ± 0.0042 |
| G6W | 0.061 ± 0.0023 | 0.06011 ± 0.00052 | 0.06212 ± 0.00026 |
| G6K | 0.0625 ± 0.0013 | 0.06414 ± 0.00052 | 0.222 ± 0.0031 |
